The target of assay [1] is T1, 13-mer peptide, amino acids 63-75 of HLA-DR β chain (DRB1*15011), SEQ ID NO 83 (human, reading uncertain).
T1 construct: SPOT peptide; also called 配列番号83; 63番目〜75番目
T1 peptide: Ac-SQKDILEQARAAV-{cellulose membrane}
The experiment in a line: SPOT peptide membrane, chemiluminescence (LumiImager).

For assay [2], the target named is T2, 13-mer peptide, amino acids 65-77 of HLA-DR β chain (DRB1*15011), SEQ ID NO 84 (human, reading uncertain).
T2 construct: SPOT peptide; also called 配列番号84; 65番目〜77番目
T2 peptide: Ac-KDILEQARAAVDT-{cellulose membrane}
The description is as above.

Assay [3] deals with T3, 13-mer peptide, amino acids 61-73 of HLA-DR β chain (DRB1*15011), SEQ ID NO 82 (human, reading uncertain).
T3 construct: SPOT peptide on cellulose membrane (JERINI); also called 配列番号82; 61番目〜73番目
T3 peptide: Ac-WNSQKDILEQARA-{cellulose membrane}
Described as above.

Assay [4] has as its target T4, HLA-DR DRB1*15011/DRA*0101 forcibly expressed on L cells (ATCC CCL-1) (human, UniProt P01903 26-254; P01911 30-266).
T4 construct: whole, on cells
The assay is described as follows: flow cytometry on transfected L cells. (In flow cytometry, cells or beads pass a laser one at a time.)

For assay [5], the target named is T5, SEQ ID NO 25 (human).
T5 construct: One of 16 peptides covering the polymorphic variants of HLA-DR β chain 61-73; also called 配列番号25
T5 peptide: WNSQKDFLERRRA
The assay is described as follows: peptide spot blot, antibody 1 μg/mL, chemiluminescence (LAS2000).

In assay [6] the target is T6, SEQ ID NO 36 (human).
T6 construct: One of 16 peptides covering the polymorphic variants of HLA-DR β chain 61-73; also called 配列番号36
T6 peptide: WNSQKDLLEQKRG
Described as above.

Assay [7] concerns the target T7, SEQ ID NO 28 (human).
T7 construct: One of 16 peptides covering the polymorphic variants of HLA-DR β chain 61-73; also called 配列番号28
T7 peptide: WNSQKDILEDERA
Described as above.

The target in assay [8] is T8, SEQ ID NO 26 (human).
T8 construct: One of 16 peptides covering the polymorphic variants of HLA-DR β chain 61-73; also called 配列番号26
T8 peptide: WNSQKDFLEDERA
The description is as above.

In assay [9] the target is T9, SEQ ID NO 40 (human).
T9 construct: also called 配列番号40
T9 peptide: WNSQKDALEQRRA
Described as above.

Assay [10] deals with T10, SEQ ID NO 42 (human).
T10 construct: also called 配列番号42
T10 peptide: WNSQKDLLEQARA
The assay is described as above.

In assay [11] the target is T11, SEQ ID NO 34 (human).
T11 construct: One of 16 peptides covering the polymorphic variants of HLA-DR β chain 61-73; also called 配列番号34
T11 peptide: WNSQKDLLEQRRA
Described as above.

For assay [12], the target named is T12, SEQ ID NO 39 (human).
T12 construct: One of 16 peptides covering the polymorphic variants of HLA-DR β chain 61-73; also called 配列番号39
T12 peptide: WNSQKDLLEDERA
Described as above.

For assay [13], the target named is T13, SEQ ID NO 37 (human).
T13 construct: One of 16 peptides covering the polymorphic variants of HLA-DR β chain 61-73; also called 配列番号37
T13 peptide: WNSQKDLLEDRRA
The description is as above.

Assay [14] deals with T14, SEQ ID NO 45 (human).
T14 construct: also called 配列番号45
T14 peptide: WASQKDLLEQRRA
The assay is described as above.

The target of assay [15] is T15, SEQ ID NO 35 (human).
T15 construct: One of 16 peptides covering the polymorphic variants of HLA-DR β chain 61-73; also called 配列番号35
T15 peptide: WNSQKDLLEQARA
The description is as above.

Assay [16] deals with T16, SEQ ID NO 29 (human).
T16 construct: One of 16 peptides covering the polymorphic variants of HLA-DR β chain 61-73; also called 配列番号29
T16 peptide: WNSQKDILEQKRG
Described as above.

Assay [17] has as its target T17, SEQ ID NO 47 (human).
T17 construct: also called 配列番号47
T17 peptide: WNSAKDLLEQRRA
The description is as above.

In assay [18] the target is T18, SEQ ID NO 46 (human).
T18 construct: also called 配列番号46
T18 peptide: WNAQKDLLEQRRA
The description is as above.

For assay [19], the target named is T19, SEQ ID NO 33 (human).
T19 construct: One of 16 peptides covering the polymorphic variants of HLA-DR β chain 61-73; also called 配列番号33
T19 peptide: WNSQKDILEQARA
Described as above.

The target of assay [20] is T20, SEQ ID NO 32 (human).
T20 construct: One of 16 peptides covering the polymorphic variants of HLA-DR β chain 61-73; also called 配列番号32
T20 peptide: WNSQKDILEDKRA
The description is as above.

Assay [21] deals with T21, SEQ ID NO 30 (human).
T21 construct: One of 16 peptides covering the polymorphic variants of HLA-DR β chain 61-73; also called 配列番号30
T21 peptide: WNSQKDILEDRRA
Described as above.

For assay [22], the target named is T22, SEQ ID NO 43 (human).
T22 construct: also called 配列番号43
T22 peptide: WNSQKDLLEQRRG
The assay is described as above.

In assay [23] the target is T23, SEQ ID NO 31 (human).
T23 construct: One of 16 peptides covering the polymorphic variants of HLA-DR β chain 61-73; also called 配列番号31
T23 peptide: WNSQKDILEDRRG
Described as above.

The target in assay [24] is T24, SEQ ID NO 44 (human).
T24 construct: also called 配列番号44
T24 peptide: ANSQKDLLEQRRA
The description is as above.

In assay [25] the target is T25, SEQ ID NO 27 (human).
T25 construct: One of 16 peptides covering the polymorphic variants of HLA-DR β chain 61-73; also called 配列番号27
T25 peptide: WNSQKDFLEQARA
The description is as above.

The target in assay [26] is T26, SEQ ID NO 24 (human).
T26 construct: One of 16 peptides covering the polymorphic variants of HLA-DR β chain 61-73; also called 配列番号24
T26 peptide: WNSQKDFLEDRRA
The description is as above.

Assay [27] has as its target T27, SEQ ID NO 38 (human).
T27 construct: One of 16 peptides covering the polymorphic variants of HLA-DR β chain 61-73; also called 配列番号38
T27 peptide: WNSQKDLLERRRA
Described as above.

The target in assay [28] is T28, SEQ ID NO 41 (human).
T28 construct: also called 配列番号41
T28 peptide: WNSQKDLLEARRA
The description is as above.

The target of assay [29] is T29, SEQ ID NO 50 (human).
T29 construct: also called 配列番号50
T29 peptide: WNSQKDLLAQRRA
The assay is described as follows: peptide spot blot, chemiluminescence (LAS2000).

Assay [30] concerns the target T30, SEQ ID NO 49 (human).
T30 construct: also called 配列番号49
T30 peptide: WNSQKALLEQRRA
The experiment in a line: peptide spot blot, chemiluminescence (LAS2000).

The target in assay [31] is T31, SEQ ID NO 51 (human).
T31 construct: also called 配列番号51
T31 peptide: WNSQKDLLEQRAA
The assay is described as follows: peptide spot blot, chemiluminescence (LAS2000).

Assay [32] deals with T32, SEQ ID NO 48 (human).
T32 construct: also called 配列番号48
T32 peptide: WNSQADLLEQRRA
The assay is described as follows: peptide spot blot, chemiluminescence (LAS2000).

Assay [33] addresses T3, 13-mer peptide, amino acids 61-73 of …. The assay is described as follows: SPOT peptide membrane.

cellulose membrane = not defined here

B1: human anti-HLA-DR monoclonal antibody HD8 (hybridoma HD8, FERM BP-7773) (antibody, V domains shown)
VH: QVQLQHSGPGLVKPSQTLSLTCAISGDSVSSNSASWNWIRQSPSRGLEWLGRTYYRSKWYNDYAVSVKSRIVINPDTSKNQFSLQLNSVTPEDTAVYYCARENFYGSETCHKKYYCYGMDVWGQGTTVTVSS
VL: AIQLTQSPSSLSASVGDRVTITCRASQGISSALAWYQQKPGKAPKLLIYDASSLESGVPSRFSGSGSGTDFTLTISSLQPEDFATYYCQQFNSFPLTFGGGTKVEIK
notes: Human IgG with kappa light chain from a KM mouse hybridoma
Take B1: the binding result in assay [1], in assay [2], in [3], in [4], in assay [5] and in assay [6] was “binds” each time. For the same molecule, the binding result in [7], in assay [8], in assay [9], in assay [10], in assay [11] and in assay [12] was “binds” in each case. For the same molecule, the binding result in [13], in [14], in assay [15], in assay [16], in [17] and in assay [18] was “binds” throughout. Moreover, the binding result in [19], in [20], in [21], in [22], in assay [23] and in assay [24] was “binds” each time. In addition, the binding result is listed as “binds” in [25]; “binds” in assay [26]; “binds” in [27]; “binds” in [28]; “no binding (tested: 1μg/mL)” in assay [29]; “no binding (tested: 1μg/mL)” in assay [30]. The binding result in [31] and in assay [32] was “no binding (tested: 1μg/mL)” in each case.

B2: human anti-HLA-DR monoclonal antibody HD4 (hybridoma HD4, FERM BP-7771) (antibody, V domains shown)
VH: EVQLLESGGGLVQPGGSLRLSCAASGFTFSSYAMTWVRQAPGKGLEWVSGISGGGDSTYYADSVKGRFTISRDNSKNTLYLQMNSLRAEDTAVYYCARDHGSGSYYPYWFDYWGQGTLVTVSS
VL: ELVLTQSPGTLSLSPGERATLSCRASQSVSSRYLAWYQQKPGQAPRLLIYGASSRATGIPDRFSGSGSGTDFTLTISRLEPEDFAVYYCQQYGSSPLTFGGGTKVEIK
notes: as for B1
Turning to B2, the binding result in assay [1], in [2] and in assay [33] was “binds” each time.

The record behind these values is patent JP2005325133A (dated 2005).
